For experiment [1], the target named is T1, p110β (Mus musculus, UniProt Q8BTI9).
T1 construct: Mouse His6-p110β(1-1064)/p85β-icSH2(423-722) complex; made in house; host or cells: Sf9 insect cells (baculovirus co-infection)
Kind of experiment: Transcreener ADP formation (fluorescence polarization), diC8-PIP2/POPS liposomes, mouse p110β complexes. It is filed as biochemical. The following applies: Figure 5B. How it is done:
(§1) Figure 1 Inhibition of p110β by p85-Type Regulatory Subunits and Activation of the Complexes by RTK Phosphopeptide (A) Domain organization of p110β and the regulatory subunits p85α, p85β, and p55γ. The color scheme for the domains is used for all figures, unless otherwise stated. […] The inhibition is released upon addition of the 10 μM PDGFR pY2. […] The y axis is expressed as a change in fluorescence polarization (ΔmP), which is obtained by subtracting the observed polarization for the construct at a given enzyme concentration from the maximum fluorescence polarization for that construct. The plateau in these assays arises due to the competitive nature of the ADP detection system, based on displacement of ADP-Alexa 633 tracer from the ADP^2-antibody by ADP generated during the PI3K assay (see Supplemental Experimental Procedures). All measurements were done in triplicates, and the error bars indicate the standard error of the mean (SEM). (C) Kinase activity of p110β/p85β complexes with monomeric substrate (75 μM diC8-PIP2) in the presence and absence of pY2; y axis as in (B). (D) Basal- and pY2-stimulated activities of 35 nM PI3K complexes in the absence of lipids (ATP hydrolysis). Activities are given as percent of ATP converted to ADP using the Transcreener assay. Bars indicate SEM. TEXT PRINTED IN THE PICTURE: (B) p110β/nic: EC50 (nM): 15 | (B) p110β/nic+pY2: EC50 (nM): 0.14 | (B) p110β/ic: EC50 (nM): 1 | (B) p110β/ic+pY2: EC50 (nM): 0.21 | (B) p110β/ni: EC50 (nM): 0.84 | (B) p110β/ni+pY2: EC50 (nM): 0.24 | (B) p110β/i: EC50 (nM): 0.12 | (B) p110β/i+pY2: EC50 (nM): 0.14 | (B) ΔABD-p110β: EC50 (nM): 0.06 | (B) ΔABD-p110β+pY2: EC50 (nM): 0.05 | (C) p110β/nic: EC50 (nM): 24 | (C) p110β/nic+pY2: EC50 (nM): 3 | (C) p110β/ic: EC50 (nM): 5 | (C) p110β/ic+pY2: EC50 (nM): 2 | (C) p110β/ni: EC50 (nM): 4 | (C) p110β/ni+pY2: EC50 (nM): 2 […]
(§2) Figure 3 Mutation Y677A in p85β-cSH2 Releases Inhibitory Effect on p110β (A) Kinase activity (ADP formation) of p110β in a complex with p85β-icSH2-Y677A (Y677A-ic) compared to the wild-type complex (ic) in the absence and presence of 10 μM PDGFR pY2 (ADP formation on the y axis expressed as in Figure 1B). (B) Comparison of p110β activities of 1 nM complexes with wild-type or Y677 mutant nicSH2 or icSH2 (activity shown as in Figure 1D). TEXT PRINTED IN THE PICTURE: (A) p110β/ic: EC50 (nM): 1 | (A) p110β/ic+pY2: EC50 (nM): 0.15 | (A) p110β/ic-Y677A: EC50 (nM): 0.11 | (A) p110β/ic-Y677A+pY2: EC50 (nM): 0.08 […]
(§3) The lipid kinase activity was determined using the Transcreener ADP2 FP Assay (BellBrook Labs, Madison, WI) according to manufacturer‟s specifications. This non-radioactive assay measures activity by quantitating the amount of ADP formed. The ADP formed by PI3K competes with fluorescent ADP tracer for binding to an anti-ADP antibody, thereby decreasing fluorescence polarization. Because of the competitive nature of this assay, the change in fluorescence polarization signal is not a linear function of enzyme activity, and a convenient measure of enzyme activity is the EC50, or the concentration of enzyme necessary to give half-maximal inhibition of labeled ADP binding to the antibody, for a given concentration of substrate and a fixed time of reaction at initial rate. While activity of two different enzyme constructs can be compared at a fixed concentration of protein and a fixed concentration of substrate, the assay is most reliable when about 2%-10% of the ATP is […]
(§4) Consequently, the EC50 provides a convenient way to compare the activities of various constructs. Briefly, reactions were performed in 10 μl volume in 384-well black plates (Corning 3676) and they contained final 100 μM ATP, 75 μM lipids and a series of protein concentration varying from 0.001 nM to 2.5 μM. Serial dilutions of protein heterodimers were prepared in buffer F (50 mM Hepes pH 7.5, 100 mM NaCl, 0.03% CHAPS, 4 mM DTT) in 5 μl […]
volume. […]
On the technique in general: Fluorescence polarisation rises when a labelled molecule tumbles more slowly, as on binding a larger partner.

Experiment [2] has as its system p110β. The description is as above. It is filed as biochemical. The settings on record: Figure 5B, C-terminal truncation vs wild-type, diC8-PIP2/POPS, 100 μM ATP, 1 h, room temperature. How it is done:
as §1, §2, §3, §4
volume. […]

Like-named read-outs stand apart in the source and are kept apart here.

T1 sequence (Q8BTI9 1-1047): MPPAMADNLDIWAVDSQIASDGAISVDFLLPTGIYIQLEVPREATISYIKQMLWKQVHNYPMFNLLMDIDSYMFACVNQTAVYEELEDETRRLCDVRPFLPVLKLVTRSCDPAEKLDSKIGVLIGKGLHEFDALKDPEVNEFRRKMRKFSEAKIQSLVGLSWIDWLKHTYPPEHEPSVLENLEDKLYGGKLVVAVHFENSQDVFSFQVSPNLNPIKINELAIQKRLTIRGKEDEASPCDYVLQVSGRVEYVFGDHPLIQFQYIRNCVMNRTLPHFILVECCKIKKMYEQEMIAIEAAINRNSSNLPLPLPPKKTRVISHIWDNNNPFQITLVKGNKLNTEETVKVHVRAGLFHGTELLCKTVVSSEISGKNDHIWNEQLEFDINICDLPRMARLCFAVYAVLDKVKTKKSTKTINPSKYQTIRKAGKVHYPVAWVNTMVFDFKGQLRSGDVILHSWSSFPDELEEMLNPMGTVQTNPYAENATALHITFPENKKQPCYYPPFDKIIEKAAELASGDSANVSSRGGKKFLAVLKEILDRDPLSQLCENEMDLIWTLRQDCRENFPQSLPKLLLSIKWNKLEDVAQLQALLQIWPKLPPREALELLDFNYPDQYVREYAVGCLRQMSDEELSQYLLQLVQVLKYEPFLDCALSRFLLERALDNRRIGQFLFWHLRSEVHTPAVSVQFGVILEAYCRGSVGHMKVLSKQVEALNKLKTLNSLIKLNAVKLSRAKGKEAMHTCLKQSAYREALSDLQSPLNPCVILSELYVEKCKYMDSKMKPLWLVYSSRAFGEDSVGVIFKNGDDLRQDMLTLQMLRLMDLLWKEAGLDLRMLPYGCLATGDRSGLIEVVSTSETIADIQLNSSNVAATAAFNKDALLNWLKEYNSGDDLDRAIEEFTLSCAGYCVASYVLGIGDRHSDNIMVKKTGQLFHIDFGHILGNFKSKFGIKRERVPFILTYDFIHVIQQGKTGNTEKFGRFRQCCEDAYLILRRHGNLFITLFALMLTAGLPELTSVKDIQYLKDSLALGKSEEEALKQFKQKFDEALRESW
T1 sequence (O08908 318-722 partner): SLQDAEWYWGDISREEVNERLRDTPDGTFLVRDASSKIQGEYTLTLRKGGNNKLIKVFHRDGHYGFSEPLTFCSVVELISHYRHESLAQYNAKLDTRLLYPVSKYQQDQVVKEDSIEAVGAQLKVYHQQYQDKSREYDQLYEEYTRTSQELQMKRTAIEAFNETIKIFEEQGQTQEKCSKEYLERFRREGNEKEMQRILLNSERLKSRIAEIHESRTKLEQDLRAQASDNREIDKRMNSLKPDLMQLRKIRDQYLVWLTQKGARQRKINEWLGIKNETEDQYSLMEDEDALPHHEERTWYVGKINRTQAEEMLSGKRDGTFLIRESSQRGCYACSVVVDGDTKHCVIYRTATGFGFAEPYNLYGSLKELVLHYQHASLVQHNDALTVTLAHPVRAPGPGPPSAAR

B1: p110β-ΔCter/nic: truncation mutant lacking 17 residues from the p110β C terminus; human ΔCter (1-1053) used in cells (protein, UniProt P42338 1-1053, looked up, fragment)
chain: MCFSFIMPPAMADILDIWAVDSQIASDGSIPVDFLLPTGIYIQLEVPREATISYIKQMLWKQVHNYPMFNLLMDIDSYMFACVNQTAVYEELEDETRRLCDVRPFLPVLKLVTRSCDPGEKLDSKIGVLIGKGLHEFDSLKDPEVNEFRRKMRKFSEEKILSLVGLSWMDWLKQTYPPEHEPSIPENLEDKLYGGKLIVAVHFENCQDVFSFQVSPNMNPIKVNELAIQKRLTIHGKEDEVSPYDYVLQVSGRVEYVFGDHPLIQFQYIRNCVMNRALPHFILVECCKIKKMYEQEMIAIEAAINRNSSNLPLPLPPKKTRIISHVWENNNPFQIVLVKGNKLNTEETVKVHVRAGLFHGTELLCKTIVSSEVSGKNDHIWNEPLEFDINICDLPRMARLCFAVYAVLDKVKTKKSTKTINPSKYQTIRKAGKVHYPVAWVNTMVFDFKGQLRTGDIILHSWSSFPDELEEMLNPMGTVQTNPYTENATALHVKFPENKKQPYYYPPFDKIIEKAAEIASSDSANVSSRGGKKFLPVLKEILDRDPLSQLCENEMDLIWTLRQDCREIFPQSLPKLLLSIKWNKLEDVAQLQALLQIWPKLPPREALELLDFNYPDQYVREYAVGCLRQMSDEELSQYLLQLVQVLKYEPFLDCALSRFLLERALGNRRIGQFLFWHLRSEVHIPAVSVQFGVILEAYCRGSVGHMKVLSKQVEALNKLKTLNSLIKLNAVKLNRAKGKEAMHTCLKQSAYREALSDLQSPLNPCVILSELYVEKCKYMDSKMKPLWLVYNNKVFGEDSVGVIFKNGDDLRQDMLTLQMLRLMDLLWKEAGLDLRMLPYGCLATGDRSGLIEVVSTSETIADIQLNSSNVAAAAAFNKDALLNWLKEYNSGDDLDRAIEEFTLSCAGYCVASYVLGIGDRHSDNIMVKKTGQLFHIDFGHILGNFKSKFGIKRERVPFILTYDFIHVIQQGKTGNTEKFGRFRQCCEDAYLILRRHGNLFITLFALMLTAGLPELTSVKDIQYLKDSLALGKSEEEALKQFKQKFDEALRESW
In the case of B1, in experiment [1], the “basal activity with diC8-PIP2/POPS” value was “very low basal activity”. The EC50 was 38 nM in experiment [2] (absence of pY2, read-out: EC50 (enzyme concentration), lipid kinase activity, basal) and 57 nM in experiment [2] (with 10 μM PDGFR pY2, read-out: EC50 (enzyme concentration), lipid kinase activity, + pY2).

These data come from PMC3670040, “Structure of Lipid Kinase p110β/p85β Elucidates an Unusual SH2-Domain-Mediated Inhibitory Mechanism” (Molecular Cell, 2011).
